Test results reported in PMC4357710, “TEFM is a potent stimulator of mitochondrial transcription elongation in vitro” (Nucleic Acids Research, 2015).

B1: human TEFM (mitochondrial transcription elongation factor), residues 36-360 (natural protein, UniProt Q96QE5 36-360, looked up)
chain: KSTTPKKITPNVTFCDENAKEPENALDKLFSSEQQASILHVLNTASTKELEAFRLLRGRRSINIVEHRENFGPFQNLESLMNVPLFKYKSTVQVCNSILCPKTGREKRKSPENRFLRKLLKPDIERERLKAVNSIISIVFGTRRIAWAHLDRKLTVLDWQQSDRWSLMRGIYSSSVYLEEISSIISKMPKADFYVLEKTGLSIQNSSLFPILLHFHIMEAMLYALLNKTFAQDGQHQVLSMNRNAVGKHFELMIGDSRTSGKELVKQFLFDSILKADPRVFFPSDKIVHYRQMFLSTELQRVEELYDSLLQAIAFYELAVFDSQP
modifications: amine-labeled with NT-547 dye (only in the MST with POLRMT)
notes: human TEFM, UniProt Q96QE5, residues 36-360; lacks the predicted mitochondrial targeting signal; The gel filtration used unlabelled protein; the MST used NT-547-labelled protein; also called recombinant TEFM; recombinant human TEFM; source: KRX cells (Promega), purified (Ni-IMAC, TEV cleavage, HiTrap Heparin, Sephacryl S-200 gel filtration); not shown: His6, N-terminal, cleaved
B2: elongation-like DNA:RNA template (18-mer DNA / 12-mer RNA) (DNA:RNA)
DNA: GGGAATGCATGGCGCGGC
RNA: UUUUGCCGCGCC

Key:
[1] = biological target: the molecule itself; assay: SEC; analytic gel filtration of recombinant TEFM; apparent molecular weight 82 kDa against 37.6 kDa for the chain
[2] = biological target: POLRMT (Homo sapiens, UniProt O00411 42-1230); assay: MST; 500 uM ATP (one nt incorporation, paused), 10 mM Mg2+, no TEFM; MST: 25 mM Tris-HCl pH 8.0, 100 mM NaCl, 10 mM MgCl2, 10% glycerol, 1 mM DTT, 500 uM ATP, 0.05% Tween-20, 15 nM template, 22 C; footprinting: 25 mM Tris-HCl pH; settings: protein: recombinant; label: 5' Alexa488 on DNA; 8 bp DNA:RNA hybrid; DNA 5' overhang 10 nt; RNA 5' overhang 4 nt (UUUU)
[3] = biological target: POLRMT;TEFM (Homo sapiens;Homo sapiens, UniProt O00411;Q96QE5 42-1230;36-360, |); assay: MST; POLRMT titrated with 2000 nM TEFM; 500 uM ATP (one nt incorporation, paused), 10 mM Mg2+; MST: 25 mM Tris-HCl pH 8.0, 100 mM NaCl, 10 mM MgCl2, 10% glycerol, 1 mM DTT, 500 uM ATP, 0.05% Tween-20, 15 nM template, 22 C; footprinting: 25 mM Tris-HCl pH; settings: protein: recombinant;recombinant; copies: 1;2; label: 5' Alexa488 on DNA; 8 bp DNA:RNA hybrid; DNA 5' overhang 10 nt; RNA 5' overhang 4 nt (UUUU)
Chain of POLRMT;TEFM (O00411 42-1230, chain 1 of 2, one chain of several): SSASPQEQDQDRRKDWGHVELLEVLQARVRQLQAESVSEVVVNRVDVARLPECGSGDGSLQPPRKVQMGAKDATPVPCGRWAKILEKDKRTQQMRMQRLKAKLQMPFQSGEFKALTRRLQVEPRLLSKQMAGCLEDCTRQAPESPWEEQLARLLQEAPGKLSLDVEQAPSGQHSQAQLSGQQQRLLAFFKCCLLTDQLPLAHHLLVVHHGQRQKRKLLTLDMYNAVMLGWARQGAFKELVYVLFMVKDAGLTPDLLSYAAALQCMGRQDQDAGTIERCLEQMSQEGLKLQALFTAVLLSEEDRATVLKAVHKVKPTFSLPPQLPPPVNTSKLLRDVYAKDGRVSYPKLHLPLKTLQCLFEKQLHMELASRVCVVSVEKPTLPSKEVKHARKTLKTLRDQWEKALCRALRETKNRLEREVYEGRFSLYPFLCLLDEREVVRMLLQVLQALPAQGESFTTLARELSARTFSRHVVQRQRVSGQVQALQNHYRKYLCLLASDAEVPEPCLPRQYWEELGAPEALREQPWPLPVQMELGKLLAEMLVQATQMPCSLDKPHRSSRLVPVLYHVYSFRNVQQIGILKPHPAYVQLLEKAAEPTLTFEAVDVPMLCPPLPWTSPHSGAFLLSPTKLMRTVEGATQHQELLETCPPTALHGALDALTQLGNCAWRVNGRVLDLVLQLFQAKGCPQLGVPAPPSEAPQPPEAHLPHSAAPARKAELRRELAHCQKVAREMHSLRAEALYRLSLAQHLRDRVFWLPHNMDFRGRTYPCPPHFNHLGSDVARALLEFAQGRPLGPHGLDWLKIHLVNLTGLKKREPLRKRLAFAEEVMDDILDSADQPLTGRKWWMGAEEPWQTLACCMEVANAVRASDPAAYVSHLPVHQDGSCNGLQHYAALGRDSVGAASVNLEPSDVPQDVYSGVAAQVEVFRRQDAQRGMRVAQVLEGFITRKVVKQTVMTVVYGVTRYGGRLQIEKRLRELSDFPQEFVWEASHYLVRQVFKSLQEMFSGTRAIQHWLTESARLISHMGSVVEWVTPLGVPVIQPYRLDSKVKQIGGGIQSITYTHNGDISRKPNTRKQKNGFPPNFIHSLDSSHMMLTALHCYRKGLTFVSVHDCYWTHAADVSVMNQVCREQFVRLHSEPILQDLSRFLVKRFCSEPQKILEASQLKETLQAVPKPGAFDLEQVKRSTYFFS

Chain of POLRMT (O00411 42-1230): as the sequence (O00411 42-1230, chain 1 of 2, one chain of several) above

| Binder | stoichiometry N [1] | Kd [2] | Kd [3] |
| --- | --- | --- | --- |
| B1 | 2 | – | – |
| B2 | – | 47.8 ± 2.88 nM | 11.2 ± 1 nM |
